The values below come from patent US20210206849A1 (UNIVERSITY OF CONNECTICUT, published 2021).

The target in assay [1] is T1, Control Ig (recombinant mouse IgG2a Fc protein) (mouse, UniProt P01863 98-330 = IgG part, limits assumed).
T1 construct: domain: Fc; Bought control protein; also called control mouse IgG2a Fc; control Ig protein
Kind of assay: ELISA screen of hybridomas. Background: ELISA stands for enzyme-linked immunosorbent assay.

The target of assay [2] is T2, mouse PD-1 on transfected HEK-293 cells (mouse, UniProt Q02242 25-288).
T2 construct: whole, on cells
T2 sequence (looked up): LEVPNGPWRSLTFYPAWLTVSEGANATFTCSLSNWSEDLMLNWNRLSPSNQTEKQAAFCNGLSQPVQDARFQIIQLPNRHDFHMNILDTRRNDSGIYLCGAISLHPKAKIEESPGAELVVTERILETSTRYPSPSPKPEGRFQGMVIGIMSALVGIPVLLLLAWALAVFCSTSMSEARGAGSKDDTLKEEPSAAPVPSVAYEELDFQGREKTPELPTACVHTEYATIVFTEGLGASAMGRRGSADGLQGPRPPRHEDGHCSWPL
In words: flow cytometry, biotinylated mCD300c2-Ig on transfected HEK-293 cells. The procedure:
(§1) To determine whether mCD300c binds to molecules previously identified as receptors of the known B7 family members, HEK-293 cells were transfected with an expression vector containing the mouse CD28. CTLA4, PD-1, BTLA or ICOS gene. The expression of these receptors on the transfected 293 cells was confirmed by flow cytometric analysis with the antibodies against the respective receptors (FIG. 5C). The binding of mCD300c to the transfected HEK-293 cells was then analyzed.
On the technique in general: A flow cytometer gives signals particle by particle.

Assay [3] deals with T3, mouse CD28 on transfected HEK-293 cells (mouse, UniProt P31041 20-218).
T3 construct: whole, on cells
T3 sequence (looked up): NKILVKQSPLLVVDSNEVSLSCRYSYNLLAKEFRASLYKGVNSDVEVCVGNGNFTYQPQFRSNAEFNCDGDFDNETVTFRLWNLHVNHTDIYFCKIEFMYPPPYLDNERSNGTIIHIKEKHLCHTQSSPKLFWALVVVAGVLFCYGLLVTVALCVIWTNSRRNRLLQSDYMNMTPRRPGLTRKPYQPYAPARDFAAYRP
Described as above. The protocol:
as §1

Assay [4] concerns the target T4, mouse BTLA on transfected HEK-293 cells (mouse, UniProt Q7TSA3 30-306).
T4 construct: whole, on cells
T4 sequence (looked up): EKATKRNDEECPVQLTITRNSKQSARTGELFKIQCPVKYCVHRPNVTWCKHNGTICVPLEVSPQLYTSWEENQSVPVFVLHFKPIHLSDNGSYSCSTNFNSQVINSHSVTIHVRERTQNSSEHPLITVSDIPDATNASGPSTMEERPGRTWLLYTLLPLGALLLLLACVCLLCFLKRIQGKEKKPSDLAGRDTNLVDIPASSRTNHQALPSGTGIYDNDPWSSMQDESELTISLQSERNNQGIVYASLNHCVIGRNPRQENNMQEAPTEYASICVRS
The description is as above. The protocol: as §1

The target of assay [5] is T5, mouse CTLA-4 on transfected HEK-293 cells (mouse, UniProt P09793 36-223).
T5 construct: whole, on cells
Described as above. The protocol: as §1

Assay [6] concerns the target T6, mouse ICOS on transfected HEK-293 cells (mouse, UniProt Q9WVS0 21-200).
T6 construct: whole, on cells
T6 sequence (looked up): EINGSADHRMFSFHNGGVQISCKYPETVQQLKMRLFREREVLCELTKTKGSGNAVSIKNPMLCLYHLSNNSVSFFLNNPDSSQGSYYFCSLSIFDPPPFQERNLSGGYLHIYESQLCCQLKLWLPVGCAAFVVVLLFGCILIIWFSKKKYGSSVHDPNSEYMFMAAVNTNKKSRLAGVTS
The assay is described as above. The protocol:
as §1

The target of assay [7] is T2, mouse PD-1 on transfected HEK-293 cells. In words: flow cytometry, biotinylated mBTN5-Ig and streptavidin-PE on transfected HEK-293 cells. The procedure:
(§2) FIG. 20. The expression pattern of the mBTN5 putative receptor. (A) Splenocytes from C57BL/6 mice were freshly harvested and analyzed for resting immune cells. For T cell activation, splenocytes were incubated with anti-CD3 (1 μg/ml) and anti-CD28 (0.5 μg/ml) antibodies for 3 days. For the activation of B cells, DCs and monocytes, splenocytes were incubated with LPS (10 μg/ml) for 3 days. The resting and active immune cells were stained with anti-CD4, CD8, B220, CD11c, or CD11b antibodies, and biotinylated mBTN5-Ig or control Ig, followed by streptavidin-PE. Representative flow cytometric profiles showing the binding of mBTN5-Ig or control Ig to resting and activated immune cells. (B, C) HEK-293 cells were transfected with an expression vector containing murine PD-1, CD28, BTLA, CTLA-4, or ICOS gene. The transfected cells were stained with (B) antibodies against the respective PD-1, CD28, BTLA, CTLA-4, or ICOS protein, (C) biotinylated mBTN5-Ig or control Ig, followed by streptavidin-PE. Representative flow cytometric profiles showing the binding of (B) the antibodies or (C) mBTN5-Ig to the transfected cells. Representative of 3 independent experiments.

Assay [8] deals with T3, mouse CD28 on transfected HEK-293 cells. The description is as above. The procedure: as §2
Assay [9] concerns the target T4, mouse BTLA on transfected HEK-293 cells. Described as above. The protocol: as §2
Assay [10] concerns the target T5, mouse CTLA-4 on transfected HEK-293 …. The assay is described as above. The procedure: as §2
In assay [11] the target is T6, mouse ICOS on transfected HEK-293 cells. The assay is described as above. The procedure: as §2
In assay [12] the target is T7, Human CD300c-Ig fusion protein (human).
T7 construct: also called hCD300c-Ig; hCD300-Ig
T7 chain: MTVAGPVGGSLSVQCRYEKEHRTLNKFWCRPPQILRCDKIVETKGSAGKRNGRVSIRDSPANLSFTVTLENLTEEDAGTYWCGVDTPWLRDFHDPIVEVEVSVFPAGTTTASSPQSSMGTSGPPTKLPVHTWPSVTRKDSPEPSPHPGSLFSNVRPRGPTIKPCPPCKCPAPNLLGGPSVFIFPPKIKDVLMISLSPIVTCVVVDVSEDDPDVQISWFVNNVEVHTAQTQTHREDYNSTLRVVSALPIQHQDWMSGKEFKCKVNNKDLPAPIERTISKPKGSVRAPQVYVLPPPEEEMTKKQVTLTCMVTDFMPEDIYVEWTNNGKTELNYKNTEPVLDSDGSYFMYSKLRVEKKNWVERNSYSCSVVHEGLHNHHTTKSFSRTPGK
In words: ELISA screen of hybridomas.

B1: anti-hTAPBPL mAb (clone 54) (antibody, V domains shown)
VH: DVQLQESGPGLVKPSQTLSLTCSVTGYSLTSGYFWHWIRQFPGNKLEWMGYISYSGTTNYNPSLKNRISITHDSSKNQFFLNLNSVTAEDTATYFCAGDDWDWFAYWGQGTLVTVSA
VL: ENVLTQSPAIMSASPGEKVTMTCSASSSVNYMHWYQQKSSTSPKLWIYDTSKLASGVPGRFSGSGSGNSYSLTISSMEAEDVATYYCFQGSGYPLTFGSGTKLEIK
notes: Mouse hybridoma mAb; also called anti-TAPBPL mAb
Turning to B1, the binding result in [1] is “no binding”.

B2: mCD300c2-Ig fusion protein (Fc fusion)
chain: CVPLHGPSTITGTVGKSLSVSCQYEEKFKTKDKFWCRGSLKVLCKDIVKTSSSEEVRNGRVTIRDHPDNLTFTVTYESLTLEDADTYMCAVDISLFDGSLGFDKYFKIELSVVPSEDPVTGSSLESGRDILESPTSSVGHTHPSVTTDDTIPTPCPQPRSLRSSLYFRVLVS
modifications: biotinylated with sulfo-NHS-LC-Biotin for flow cytometry (sites not given)
notes: Made in HEK293F cells; also called mCD300c-Ig; not shown: constant region of mouse IgG2a from the pCMV6-AC-FC-S expression vector (ORIGENE)
In the case of B2, the binding result in assay [2], in [3], in [4], in assay [5] and in assay [6] was “no binding” in each case.

B3: mBTN5-Ig fusion protein (Fc fusion)
chain: QPPVQVLGDAGKVYIAPLRDTANLPCPLFLWPNMVLSEMRWYRPGHLPRTQAVHVFRDGQDRDEDLMPEYKGRTALVRDAHKESYILQISNVRLEDRGLYQCQVWVGNS
modifications: biotinylated with sulfo-NHS-LC-Biotin (sites not given)
notes: Made in HEK-293 cells; not shown: constant region of mouse IgG2a from the pCMV6-AC-FC-S expression vector (ORIGENE)
Regarding B3, the binding result in [7], in assay [8], in assay [9], in [10] and in [11] was “no binding” each time.

B4: anti-hCD300c mAb (clone B47-1D2) (antibody, V domains shown)
VH: QIQLVQSGPELRKPGETVKISCKASGYTFTIYGMNWMKQAPGKGLKWMGWINTYTGEPTYADDFKGRFAFSLETSASTAFLQINNLTNEDTATYFCARSRFAYWGQGTLVTVSA
VL: DIVMTQSQKFMSTSVGDRVSVTCKASQNVGTNVAWYQQKPGQSPKALIYSASYRYSGVPDRFTGSRSGTDFTLTISNVQSEDLAEYVCQQYNSYPLTFGAGTKLELK
notes: Mouse hybridoma mAb; also called anti-CD300c mAb
Consider B4, for which the binding result in assay [1] is listed as “no binding”; in [12] it was “binds”.
